From article PMC5368982, “Engineering Structurally Interacting RNA (sxRNA)”

Legend:
[1] = biological target: T1, SLBP (histone stem-loop binding protein) (UniProt Q14493 1-270); test: EMSA; without trigger; EMSA: 1x NT2 buffer, 1 mM DTT, RNaseOUT, 50 uL, room temperature 1 h, 1.25 ug SLBP (~37 pmol), native 8% PAGE in 1x TB; RIP: RNAs in 10 mM Tris/100 mM NaCl; pH; conditions: protein: recombinant; label: none; alternative fold without HSL
[2] = biological target: T1, SLBP (histone stem-loop binding protein); test: EMSA; with T-1 trigger; EMSA: 1x NT2 buffer, 1 mM DTT, RNaseOUT, 50 uL, room temperature 1 h, 1.25 ug SLBP (~37 pmol), native 8% PAGE in 1x TB; RIP: RNAs in 10 mM Tris/100 mM NaCl; pH; conditions: protein: recombinant; label: none; trans three-way junction, bait:trigger 1:1, not a blunt duplex
[3] = biological target: T1, SLBP (histone stem-loop binding protein); test: RIP pull-down with recombinant SLBP; with T-1* trigger; EMSA: 1x NT2 buffer, 1 mM DTT, RNaseOUT, 50 uL, room temperature 1 h, 1.25 ug SLBP (~37 pmol), native 8% PAGE in 1x TB; RIP: RNAs in 10 mM Tris/100 mM NaCl; pH; conditions: label: none, trans three-way junction, bait:trigger 1:1, not a blunt duplex

B1: B-1b (structured_RNA)
RNA: GGGAAGAGAGCCCAAACACCAUUGUCAAAAGGCUCUUUUCAGAGCUACACUCCAGAGCU
modifications: none
B1: no binding [1].

B2: B-1b + T-1 (trans-3WJ) (structured_RNA)
RNA 1: B1 RNA
RNA 2: UGGAGUGUGACAAUGGUGUUUG
modifications: none
B2: binds [2].

B3: B-1a + T-1* (trans-3WJ) (mixed)
RNA 1: GGGCAAACACCAUUGUCAAAAGGCUCUUUUCAGAGCCACACUCCA
RNA 2: UGGAGUGUGACAAUGGUGUUUG
modifications: 2'-OMe on trigger (strand 2)
B3: binds [3].
